Kd data for two molecules are collected here from patent US20210002330A1 (ASOCIACI N CENTRO DE INVESTIGACI N COOPERATIVA EN …, published 2021).

A word on the Kd: it is the free concentration of one partner at which half of the binding sites on the other are occupied at equilibrium, for simple one-to-one binding. Read a low Kd as higher affinity.

Assay [1] has as its target T1, fluorescein-labeled Hsp90 peptide (fluorescein label (position not given)).
T1 construct: also called target peptide; C-terminal peptide of Hsp90
T1 peptide: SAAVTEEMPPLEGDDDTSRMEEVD
Nature of the assay: fluorescence anisotropy; protein titrated into 50 nM fluorescein-labeled Hsp90 peptide. Here is the method:
(§1) In addition, the ligand binding activity of the tested proteins was studied by using CC1-CTPR390, CC1-TPR2A, CC1-TPR2A_T332R_D334K proteins and its target peptide. […] Fluorescence intensities were recorded in a Perkin Elmer Fluorimeter equipped with excitation and emission polarizers. Excitation was accomplished with a 5 nm slit width at 492 nm and the emission recorded at 516 nm with slit width of 5 nm. […]
(Fluorescence polarisation rises when a labelled molecule tumbles more slowly, as on binding a larger partner.)

For assay [2], the target named is T1, fluorescein-labeled Hsp90 peptide. The assay is described as follows: fluorescence anisotropy with fluorescein-labeled Hsp90 peptide; protein-stabilised gold nanocluster complex. Here is the method: as §1
Finally, fluorescence anisotropy was used to monitor the interaction between the CC1-CTPR390-AuNCs, CC1-TPR2A-AuNCs and CC1-TPR2A_T332R_D334K-AuNCs complexes and a fluorescein-labeled Hsp90 peptide to determine the corresponding Kd value.

B1: CC1-CTPR390 (designed binder)
chain: AEAWCNLGCAYYKQGDYDEAIEYYQKALELDPRSACAWYCLGNAYYKQGDYDEAIEYYQKALELDPRSAEAWKNLGNAYYKQGDYQKAIEYYQKALELDPNNASAWYNLGNAYYKQGDYQKAIEYYQKALELDPNNAKAWYRRGNAYYKQGDYQKAIEDYQKALELDPNNAKAKQNLGNAKQKQG
notes: CC1 Cys-clamp module (modules C and C1 fused) joined to the Hsp90 recognition domain CTPR390; Expressed in E. coli and the His tag was cleaved with TEV
In assay [1], B1 registered a Kd of 110 µM.

B2: CC1-CTPR390-AuNCs (designed binder)
chain: B1 chain
modifications: gold nanocluster (AuNC) stabilised on the protein (CC1 4-Cys clamp)
notes: also called CC1-CTPR390-AuNCs complex
Consider B2, for which the Kd in assay [2] is around 110 µM.
